Laboratory results published in PMC8215292, “Functional impact of intramolecular cleavage and dissociation of adhesion G protein–coupled receptor GPR133 (ADGRD1) on canonical signaling” (The Journal of Biological Chemistry, 2021).

Assays:
[1] = molecular target: T1, GPR133 (ADGRD1) C-terminal fragment with C-terminal Twin-Strep-tag, cleaved from C-terminally … (human); assay: pull-down; C-terminal Twin-Strep tag purification on Strep-Tactin from the Nuc/ER/Golgi subcellular fraction of HEK293T cells (1% DDM); Western blot, densitometry of NTF/CTF; conditions: partners not purified
T1 construct: also called CTF; GPR133 CTF; source: HEK293T, transfected, in whole-cell lysate or subcellular fractions; not shown: Twin-Strep, C-terminal, kept
T1 chain: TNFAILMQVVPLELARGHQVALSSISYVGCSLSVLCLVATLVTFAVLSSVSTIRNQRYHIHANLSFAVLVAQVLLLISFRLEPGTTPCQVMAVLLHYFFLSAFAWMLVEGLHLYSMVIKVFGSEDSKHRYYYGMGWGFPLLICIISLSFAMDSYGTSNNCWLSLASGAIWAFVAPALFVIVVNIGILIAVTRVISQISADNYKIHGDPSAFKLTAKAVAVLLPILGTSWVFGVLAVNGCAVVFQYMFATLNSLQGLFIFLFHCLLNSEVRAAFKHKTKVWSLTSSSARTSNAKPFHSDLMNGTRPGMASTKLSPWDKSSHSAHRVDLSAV

[2] = molecular target: T1, GPR133 (ADGRD1) C-terminal fragment …; assay: pull-down; C-terminal Twin-Strep tag purification on Strep-Tactin from the plasma membrane subcellular fraction of HEK293T cells (1% DDM); Western blot, densitometry of NTF/CTF; conditions: partners not purified

B1: GPR133 (ADGRD1) N-terminal fragment, cleaved from C-terminally Twin-Strep-tagged WT GPR133 (domain or fragment, human)
chain: VYSRSQDHPGFQVLASASHYWPLENVDGIHELQDTTGDIVEGKVNKGIYLKEEKGVTLLYYGRYNSSCISKPEQCGPEGVTFSFFWKTQGEQSRPIPSAYGGQVISNGFKVCSSGGRGSVELYTRDNSMTWEASFSPPGPYWTHVLFTWKSKEGLKVYVNGTLSTSDPSGKVSRDYGESNVNLVIGSEQDQAKCYENGAFDEFIIWERALTPDEIAMYFTAAIGKHALLSSTLPSLFMTSTASPVMPTDAYHPIITNLTEERKTFQSPGVILSYLQNVSLSLPSKSLSEQTALNLTKTFLKAVGEILLLPGWIALSEDSAVVLSLIDTIDTVMGHVSSNLHGSTPQVTVEGSSAMAEFSVAKILPKTVNSSHYRFPAHGQSFIQIPHEAFHRHAWSTVVGLLYHSMHYYLNNIWPAHTKIAEAMHHQDCLLFATSHLISLEVSPPPTLSQNLSGSPLITVHLKHRLTRKQHSEATNSSNRVFVYCAFLDFSSGEGVWSNHGCALTRGNLTYSVCRCTHL
modifications: glycosylated (immaturely and maturely glycosylated forms; nine N-linked glycosylation sites predicted within the NTF)
notes: signal peptide in the construct; codon-optimized cDNA of WT human GPR133 from Axxam; also called NTF; GPR133 NTF; source: HEK293T, transfected, in whole-cell lysate or subcellular fractions
NTF/CTF ratio in the elution [1]: 1 | NTF/CTF ratio in the elution [2]: 0.17
